Results as given in US20220064272A1 (TAUC3 BIOLOGICS, published 2022).
Changes are numbered by the printed parent chain. “And” between values parts separate entries of the source, which are not always exact repeats. Identical values can stand only once.

Columns and labels:
[1] = molecular target: T1, TauC3 (C-terminally truncated tau fragment ending at aspartate 421 of htau40) (human, UniProt P10636 1-738); test: binding ELISA on coated TauC3, OD650
T1 construct: Generated and purified by Genscript; also called Human TauC3; recombinant TauC3 protein
Summary of the method: (§1)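 Chimeric or humanized IgG4κ antibodies were expressed in ExpiCHO cells and tested by binding ELISA against coated TauC3 antigen, which Genscript made and purified. Absorbance was read at 650 nm as the measure of binding. EC50 was calculated from the antibody concentration-response.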

[2] = molecular target: T1, TauC3 (C-terminally truncated tau …); test: binding ELISA on coated TauC3, OD650; remark: listed apart in the source
Summary of the method: as §1

[3] = molecular target: T1, TauC3 (C-terminally truncated tau …); test: binding ELISA on coated TauC3, OD650; remark: listed apart in the source
Summary of the method: as §1

[4] = molecular target: T1, TauC3 (C-terminally truncated tau …); test: binding ELISA on coated TauC3, OD650; remark: listed apart in the source
Summary of the method: as §1

[5] = molecular target: T2, full length Tau (2N4R, htau40) (human, UniProt P10636 1-758); test: Octet, antibody on Protein G sensor, FL Tau in solution
T2 construct: Generated and purified by Genscript; also called FL Tau; FLT
Summary of the method: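 Antibody loaded on Protein G biosensors was tested by Bio-Layer Interferometry (OctetRed96) for binding to purified full-length tau in solution. The tau was made and purified by Genscript. Full-length tau was applied at 500 nM. The result is the binding signal response in nm.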

[6] = molecular target: T1, TauC3 (C-terminally truncated tau …); test: SPR (Biacore) kinetics, TauC3 amine-coupled on CM5, 1:1 global fit
Summary of the method: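 Surface plasmon resonance (Biacore) was used with purified TauC3 immobilised on a CM5 chip by amine coupling. A concentration series of each purified antibody was injected over the chip. Association rate, dissociation rate and Kd were obtained by a 1:1 global fit.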

[7] = molecular target: T1, TauC3 (C-terminally truncated tau …); test: binding ELISA on coated TauC3, OD650; right table (HM variants)
Summary of the method: as §1

[8] = molecular target: T1, TauC3 (C-terminally truncated tau …); test: Biacore kinetics, TauC3 amine-coupled on CM5, antibody series, 1:1 global fit
From the text: To determine the affinity of the binding interactions, a biacore kinetic assay was developed which involved immobilizing TauC3 on a CM5 chip via amine coupling and injecting a concentration series of the respective antibody over it.

[9] = molecular target: T1, TauC3 (C-terminally truncated tau …); test: Biacore off-rate ranking, TauC3 amine-coupled on CM5, one antibody concentration; one-phase exponential decay fit
Experimental: (§2) To further evaluate the binding data observed on the Octet, an off-rate ranking experiment was performed on the Biacore 200 instrument. Biacore offers greater selectivity than the Octet and facilitated the immobilization of TauC3 onto a CM5 chip via amine coupling which stabilizes the antigen. This produces higher quality data with stable baselines and good reproducible responses. Once TauC3 is immobilized, one concentration (5 nM) of antibody is added, followed by a dissociation and regeneration step (Section 8.20). The off-rates were fitted using a two-phase decay model (FIG. 25B) or a one phase decay fitting only the second off-rate (FIG. 25A). The candidates were then ranked based on the off-rates obtained using the fits and compared. The data agreed with the Octet results (albeit with a different ranking order), highlighting Tau01 HMKM, HMKO, HMKP, HMKN and HMKE as the humanized variants with the slowest off-rates. The lack of binding of FL Tau to chimeric and a humanized candidate was also confirmed by Biacore by loading the antibody onto a Protein G chip and adding 250 nM FL Tau.

[10] = molecular target: T1, TauC3 (C-terminally truncated tau …); test: Biacore off-rate ranking, TauC3 amine-coupled on CM5, one antibody concentration; two-phase decay fit, slow phase; parameters: unit not given here
Experimental: as §2

[11] = molecular target: T1, TauC3 (C-terminally truncated tau …); test: binding ELISA on TauC3 after 21 days at 37 C in PBS or mouse, human, cynomolgus serum, with non-incubated control
Experimental: Purified samples of the chimeric and humanized antibodies were incubated in mouse, human and cynomolgus serum for 21 days. The binding of the Tau01 HMKE, HMKM, HMKN, HMKO, HMKP candidate antibodies which had been incubated in the 3 different serums were compared with an antibody incubated in PBS and a 4° C. positive control sample by binding ELISA to TauC3 (FIG. 37). The Tau01 HMKE, HMKM, HMKN, HMKO, HMKP candidate antibodies retained their binding capability after being incubated in mouse, human and cynomolgus serum.

[12] = molecular target: T1, TauC3 (C-terminally truncated tau …); test: binding ELISA on coated TauC3, OD650; remark: listed apart in the source
Summary of the method: as §1

[13] = molecular target: T1, TauC3 (C-terminally truncated tau …); test: binding ELISA, TauC3 coated
Summary of the method: as §1

[14] = molecular target: T1, TauC3 (C-terminally truncated tau …); test: binding ELISA, TauC3 coated; FIG. 16 ELISA
Summary of the method: as §1

[15] = molecular target: T1, TauC3 (C-terminally truncated tau …); test: binding ELISA on coated TauC3, OD650; remark: listed apart in the source
Summary of the method: as §1

[16] = molecular target: T1, TauC3 (C-terminally truncated tau …); test: binding ELISA on coated TauC3, OD650; remark: listed apart in the source
Summary of the method: as §1

[17] = molecular target: T1, TauC3 (C-terminally truncated tau …); test: binding ELISA on coated TauC3, OD650; left table (HC variants)
Summary of the method: as §1

[18] = molecular target: T1, TauC3 (C-terminally truncated tau …); test: binding ELISA on coated TauC3, OD650; remark: listed apart in the source
Summary of the method: as §1

T1 sequence (P10636 other isoform, or with tags, fused parts or gaps): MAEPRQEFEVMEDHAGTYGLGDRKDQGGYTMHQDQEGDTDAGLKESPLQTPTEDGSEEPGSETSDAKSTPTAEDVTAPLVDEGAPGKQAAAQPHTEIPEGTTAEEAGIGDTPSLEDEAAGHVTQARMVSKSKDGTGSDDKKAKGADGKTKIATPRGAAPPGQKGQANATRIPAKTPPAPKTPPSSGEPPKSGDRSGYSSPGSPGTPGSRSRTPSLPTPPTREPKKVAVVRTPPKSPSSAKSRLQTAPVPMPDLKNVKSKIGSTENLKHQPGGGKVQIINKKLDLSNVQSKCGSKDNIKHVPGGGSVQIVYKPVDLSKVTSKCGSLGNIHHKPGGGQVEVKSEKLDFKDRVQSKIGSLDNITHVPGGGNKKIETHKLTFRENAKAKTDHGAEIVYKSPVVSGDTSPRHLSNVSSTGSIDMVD
T2 sequence (P10636 other isoform, or with tags, fused parts or gaps limits assumed): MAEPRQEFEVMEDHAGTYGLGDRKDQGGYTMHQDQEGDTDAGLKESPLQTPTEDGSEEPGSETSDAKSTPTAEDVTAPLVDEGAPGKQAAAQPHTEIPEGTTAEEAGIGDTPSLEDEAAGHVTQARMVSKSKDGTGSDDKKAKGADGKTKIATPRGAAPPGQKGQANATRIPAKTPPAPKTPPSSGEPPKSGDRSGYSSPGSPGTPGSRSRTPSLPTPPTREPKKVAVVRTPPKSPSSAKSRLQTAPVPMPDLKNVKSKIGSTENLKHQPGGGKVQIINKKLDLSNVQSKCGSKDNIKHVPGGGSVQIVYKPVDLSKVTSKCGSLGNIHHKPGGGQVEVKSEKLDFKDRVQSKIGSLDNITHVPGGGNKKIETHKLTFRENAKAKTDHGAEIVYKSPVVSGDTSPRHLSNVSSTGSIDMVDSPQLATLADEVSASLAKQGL

B1: Tau01 HBKA (antibody, V domains shown)
VH: EVQVVESGGGLVQPGGSLKLSCAASGFTFNTYAMNWVRQASGKGLEWVARIRSKSNNYATYYADSVKGRFTISRDDSKSMVYLQMDSLKTEDTAVYYCVGGGDFWGQGTLVTVSS
VL: DIQMTQSPSSLSASVGDRVTITCRASQEISVYLGWYQQKPGKAPKRLIYGAFKLQSGVPSRFSGSRSGTEFTLTISSLQPEDFATYYCLQYVRYPWTFGGGTKVEIK
notes: human IgG4 kappa (HuG4K)
B1 showed an EC50 [1] of 1.39 nM, an EC50 [2] of 0.795 nM and an EC50 [3] of 0.92 nM.

B2: Tau01 HOKB (antibody, V domains shown)
VH: B1 VH with E1L, D64A, V81A
VL: B1 VL with G34S, Y36F, P44I, K53T, T69S, F71Y
notes: human IgG4 kappa (HuG4K)
With B2 the EC50 [4] was 0.51 nM.

B3: Tau01 HMKE HuG4k (antibody, V domains shown)
VH: B1 VH with E1L, V4L, D64A, V81A
VL: B1 VL with Y36F
notes: human IgG4 kappa (HuG4K); also called KMKE
B3 was tested, and the binding result [5] was “no binding”, the Kd [6] was 0.02 nM and the koff [6] was 0.00283 s⁻¹. For the same binder, the kon [6] was 1.41e+08 M⁻¹ s⁻¹, the EC50 [7] was 0.437 nM and 0.532 nM and the Kd [8] was 0.0201 nM. The koff [8] was 0.00283 s⁻¹, the koff [9] was 0.000953 s⁻¹ and the Kslow [10] was 0.000883. The “EC50 (read off the curve)” value [11] was roughly 0.8 nM.

B4: Tau01 HMKN HuG4k (antibody, V domains shown)
VH: B1 VH with E1L, V4L, D64A, V81A
VL: B1 VL with K53T, F71Y
notes: human IgG4 kappa (HuG4K)
For B4, the binding result [5] was “no binding”, the Kd [6] was 0.025 nM and the koff [6] was 0.0015 s⁻¹. For the same binder, the kon [6] was 6.03e+07 M⁻¹ s⁻¹, the EC50 [7] was 0.624 nM and the Kd [8] was 0.0249 nM. The koff [9] was 0.000878 s⁻¹, the Kslow [10] was 0.000823 and the “EC50 (read off the curve)” value [11] was roughly 0.5 nM.

B5: Tau01 HFKB (antibody, V domains shown)
VH: B1 VH with E1L, V4L, A49G, Y61A, D64A, S79N, M80T, V81A
VL: B1 VL with G34S, Y36F, P44I, K53T, T69S, F71Y
notes: human IgG4 kappa (HuG4K)
In the case of B5, the EC50 [12] is reported as 2.93 nM.

B6: Tau01 HOKJ (antibody, V domains shown)
VH: B1 VH with E1L, D64A, V81A
VL: B1 VL with K53S
notes: human IgG4 kappa (HuG4K)
Work on B6 yielded an EC50 [4] of 0.556 nM.

B7: Tau01 HOKA (antibody, V domains shown)
VH: B1 VH with E1L, D64A, V81A
VL: B1 VL
notes: human IgG4 kappa (HuG4K)
B7 gave an EC50 [4] of 0.389 nM.

B8: Tau01 HOKI (antibody, V domains shown)
VH: B1 VH with E1L, D64A, V81A
VL: B1 VL with F71Y
notes: human IgG4 kappa (HuG4K)
B8 showed an EC50 [4] of 0.482 nM.

B9: Tau01 HBKB (antibody, V domains shown)
VH: B1 VH
VL: B1 VL with G34S, Y36F, P44I, K53T, T69S, F71Y
notes: human IgG4 kappa (HuG4K)
B9 gave an EC50 [13] of 0.78 nM, an EC50 [14] of 0.81 nM and an EC50 [2] of 0.767 nM. The EC50 [15] was 0.402 nM, the EC50 [16] was 0.402 nM and the EC50 [4] was 0.402 nM.

B10: Tau01 HMKO HuG4k (antibody, V domains shown)
VH: B1 VH with E1L, V4L, D64A, V81A
VL: B1 VL with K53S, F71Y
notes: human IgG4 kappa (HuG4K)
For B10, the binding result [5] was “no binding”, the Kd [6] was 0.059 nM and the koff [6] was 0.00352 s⁻¹. For the same binder, the kon [6] was 5.93e+07 M⁻¹ s⁻¹, the EC50 [7] was 0.583 nM and the Kd [8] was 0.0594 nM. The koff [8] was 0.00352 s⁻¹, the koff [9] was 0.000473 s⁻¹ and the Kslow [10] was 0.000349. For the same binder, the “EC50 (read off the curve)” value [11] was roughly 0.7 nM.

B11: Tau01 HCKC (antibody, V domains shown)
VH: B1 VH with E1L, V4L, A49G, D64A, V81A
VL: B1 VL with G34S, Y36F, F71Y
notes: human IgG4 kappa (HuG4K)
Work on B11 yielded an EC50 [1] of 1.34 nM and an EC50 [17] of 1.57 nM.

B12: Tau01 HMKP HuG4k (antibody, V domains shown)
VH: B1 VH with E1L, V4L, D64A, V81A
VL: B1 VL with Y36F, F71Y
notes: human IgG4 kappa (HuG4K); Lead candidate
With B12 the binding result [5] was “no binding”, the Kd [6] was 0.013 nM and the koff [6] was 0.00186 s⁻¹. The kon [6] was 1.43e+08 M⁻¹ s⁻¹, the EC50 [7] was 0.499 nM and the koff [8] was 0.00186 s⁻¹. It also gave a kon [8] of 1.43e+08 M⁻¹ s⁻¹, a koff [9] of 0.000811 s⁻¹ and a Kslow [10] of 0.000777. For the same binder, the “EC50 (read off the curve)” value [11] was roughly 0.6 nM.

B13: Tau01 HCKA (antibody, V domains shown)
VH: B1 VH with E1L, V4L, A49G, D64A, V81A
VL: B1 VL
notes: human IgG4 kappa (HuG4K)
B13 was tested, and the EC50 [1] was 6.45 nM, the EC50 [18] was 0.959 nM and the EC50 [17] was 1.52 nM.

B14: Tau01 HBKC (antibody, V domains shown)
VH: B1 VH
VL: B1 VL with G34S, Y36F, F71Y
notes: human IgG4 kappa (HuG4K)
B14 gave an EC50 [14] of 0.84 nM and an EC50 [1] of 0.99 nM.

B15: Tau01 HOKG (antibody, V domains shown)
VH: B1 VH with E1L, D64A, V81A
VL: B1 VL with K53T
notes: human IgG4 kappa (HuG4K)
B15 gave an EC50 [4] of 0.604 nM.
